# In patent publication US10941182 (Amgen, dated 2021):
# Starred links: 1 amine or outer side, 2 acyl side, 3 side chain; linkers in the order of their positions; H or OH if unused. Non-standard residues stand in square brackets, D forms with d. Primed or numbered codes have the meaning given here. *: point of attachment. AC4Abu = α-carboxy-4-aminobutyric acid, O=C(C(CCN[*:1])C(=O)[*:3])[*:2]; Oic = O=C(O)[C@@H]1C[C@@H]2CCCC[C@@H]2N1; Phe(4-Cl) = N[C@@H](Cc1ccc(Cl)cc1)C(=O)O; γGlu = O=C(O)[C@H](CCC(=O)[*:2])N[*:1]; NMeR = CN[C@@H](CCCNC(=N)N)C(=O)O; Tridecanoyl = CCCCCCCCCCCCC(=O)*; Cha = N[C@@H](CC1CCCCC1)C(=O)O; Tle = CC(C)(C)[C@H](N)C(=O)O; αMeP = C[C@@]1(C(=O)O)CCCN1; β3hP = O=C(O)C[C@@H]1CCCN1; Nle = CCCC[C@H](N)C(=O)O; Pip′ = not defined here; Deg = CCC(N)(CC)C(=O)O; AEEA = NCCOCCOCC(=O)O; Aib = CC(C)(N)C(=O)O
# T1: rat APJ receptor (rat, UniProt Q9JHG3 1-377)
# T1 sequence (looked up): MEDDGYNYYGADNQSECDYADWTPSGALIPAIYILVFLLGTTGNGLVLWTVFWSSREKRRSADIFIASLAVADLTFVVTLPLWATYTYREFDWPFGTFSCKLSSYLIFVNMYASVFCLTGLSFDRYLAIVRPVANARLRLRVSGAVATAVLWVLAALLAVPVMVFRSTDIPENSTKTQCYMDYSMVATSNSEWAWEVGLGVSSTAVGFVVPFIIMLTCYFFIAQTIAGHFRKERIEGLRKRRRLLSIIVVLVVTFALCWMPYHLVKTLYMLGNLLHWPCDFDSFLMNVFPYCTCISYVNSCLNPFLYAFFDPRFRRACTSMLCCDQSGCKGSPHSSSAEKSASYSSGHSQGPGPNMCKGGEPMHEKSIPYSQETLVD
# T2: human APJ receptor (human, UniProt P35414 1-380)
# T2 sequence (looked up): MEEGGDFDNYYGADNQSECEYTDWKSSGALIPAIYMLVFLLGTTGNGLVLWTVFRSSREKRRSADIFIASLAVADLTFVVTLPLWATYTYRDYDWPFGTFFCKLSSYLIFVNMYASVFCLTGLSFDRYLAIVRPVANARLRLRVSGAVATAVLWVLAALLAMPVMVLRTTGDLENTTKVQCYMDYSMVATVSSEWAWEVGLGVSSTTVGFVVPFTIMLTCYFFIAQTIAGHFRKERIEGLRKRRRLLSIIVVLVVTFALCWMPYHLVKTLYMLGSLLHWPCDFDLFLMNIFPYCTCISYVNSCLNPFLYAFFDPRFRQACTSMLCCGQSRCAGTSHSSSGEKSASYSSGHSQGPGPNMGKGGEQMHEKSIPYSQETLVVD
# B1: Apelin polypeptide SEQ ID NO: 412 (peptide)
# peptide: Tridecanoyl-[AC4Abu][AEEA][AEEA]QRP[NMeR][Cha]SHKG[Oic][Nle][αMeP][Phe(4-Cl)]-OH
# SMILES: CCCCCCCCCCCCC(=O)NCCC(C(=O)O)C(=O)NCCOCCOCC(=O)NCCOCCOCC(=O)N[C@@H](CCC(N)=O)C(=O)N[C@@H](CCCNC(=N)N)C(=O)N1CCC[C@H]1C(=O)N(C)[C@@H](CCCNC(=N)N)C(=O)N[C@@H](CC1CCCCC1)C(=O)N[C@@H](CO)C(=O)N[C@@H](Cc1c[nH]cn1)C(=O)N[C@@H](CCCCN)C(=O)NCC(=O)N1[C@H](C(=O)N[C@@H](CCCC)C(=O)N2CCC[C@@]2(C)C(=O)N[C@@H](Cc2ccc(Cl)cc2)C(=O)O)C[C@@H]2CCCC[C@@H]21
# B2: Apelin polypeptide SEQ ID NO: 411 (peptide)
# peptide: Tridecanoyl-[AC4Abu][AEEA][AEEA]QRP[NMeR][Cha]SHKG[Oic][Nle][Deg][Phe(4-Cl)]-OH
# SMILES: CCCCCCCCCCCCC(=O)NCCC(C(=O)O)C(=O)NCCOCCOCC(=O)NCCOCCOCC(=O)N[C@@H](CCC(N)=O)C(=O)N[C@@H](CCCNC(=N)N)C(=O)N1CCC[C@H]1C(=O)N(C)[C@@H](CCCNC(=N)N)C(=O)N[C@@H](CC1CCCCC1)C(=O)N[C@@H](CO)C(=O)N[C@@H](Cc1c[nH]cn1)C(=O)N[C@@H](CCCCN)C(=O)NCC(=O)N1[C@H](C(=O)N[C@@H](CCCC)C(=O)NC(CC)(CC)C(=O)N[C@@H](Cc2ccc(Cl)cc2)C(=O)O)C[C@@H]2CCCC[C@@H]21
# B3: Apelin polypeptide SEQ ID NO: 541 (peptide)
# peptide: Tridecanoyl-[γGlu][AEEA][AEEA][dQ]RP[NMeR][Cha]SHKG[Oic][Nle][αMeP][Phe(4-Cl)]-OH
# SMILES: CCCCCCCCCCCCC(=O)N[C@@H](CCC(=O)NCCOCCOCC(=O)NCCOCCOCC(=O)N[C@H](CCC(N)=O)C(=O)N[C@@H](CCCNC(=N)N)C(=O)N1CCC[C@H]1C(=O)N(C)[C@@H](CCCNC(=N)N)C(=O)N[C@@H](CC1CCCCC1)C(=O)N[C@@H](CO)C(=O)N[C@@H](Cc1c[nH]cn1)C(=O)N[C@@H](CCCCN)C(=O)NCC(=O)N1[C@H](C(=O)N[C@@H](CCCC)C(=O)N2CCC[C@@]2(C)C(=O)N[C@@H](Cc2ccc(Cl)cc2)C(=O)O)C[C@@H]2CCCC[C@@H]21)C(=O)O
# B4: Apelin polypeptide SEQ ID NO: 361 (peptide)
# peptide: Tridecanoyl-[γGlu][AEEA][AEEA]QRP[NMeR][Cha]SHKGP[Nle]P[Phe(4-Cl)]-OH
# SMILES: CCCCCCCCCCCCC(=O)N[C@@H](CCC(=O)NCCOCCOCC(=O)NCCOCCOCC(=O)N[C@@H](CCC(N)=O)C(=O)N[C@@H](CCCNC(=N)N)C(=O)N1CCC[C@H]1C(=O)N(C)[C@@H](CCCNC(=N)N)C(=O)N[C@@H](CC1CCCCC1)C(=O)N[C@@H](CO)C(=O)N[C@@H](Cc1c[nH]cn1)C(=O)N[C@@H](CCCCN)C(=O)NCC(=O)N1CCC[C@H]1C(=O)N[C@@H](CCCC)C(=O)N1CCC[C@H]1C(=O)N[C@@H](Cc1ccc(Cl)cc1)C(=O)O)C(=O)O
# B5: Apelin polypeptide SEQ ID NO: 437 (peptide)
# peptide: Tridecanoyl-[γGlu][AEEA][AEEA]QRP[NMeR][Cha]SVKG[Oic][Nle]P[Phe(4-Cl)]-OH
# SMILES: CCCCCCCCCCCCC(=O)N[C@@H](CCC(=O)NCCOCCOCC(=O)NCCOCCOCC(=O)N[C@@H](CCC(N)=O)C(=O)N[C@@H](CCCNC(=N)N)C(=O)N1CCC[C@H]1C(=O)N(C)[C@@H](CCCNC(=N)N)C(=O)N[C@@H](CC1CCCCC1)C(=O)N[C@@H](CO)C(=O)N[C@H](C(=O)N[C@@H](CCCCN)C(=O)NCC(=O)N1[C@H](C(=O)N[C@@H](CCCC)C(=O)N2CCC[C@H]2C(=O)N[C@@H](Cc2ccc(Cl)cc2)C(=O)O)C[C@@H]2CCCC[C@@H]21)C(C)C)C(=O)O
# B6: Apelin polypeptide SEQ ID NO: 413 (peptide)
# peptide: Tridecanoyl-[AC4Abu][AEEA][AEEA]QRP[NMeR][Cha]SHKG[Oic][Tle]P[Phe(4-Cl)]-OH
# SMILES: CCCCCCCCCCCCC(=O)NCCC(C(=O)O)C(=O)NCCOCCOCC(=O)NCCOCCOCC(=O)N[C@@H](CCC(N)=O)C(=O)N[C@@H](CCCNC(=N)N)C(=O)N1CCC[C@H]1C(=O)N(C)[C@@H](CCCNC(=N)N)C(=O)N[C@@H](CC1CCCCC1)C(=O)N[C@@H](CO)C(=O)N[C@@H](Cc1c[nH]cn1)C(=O)N[C@@H](CCCCN)C(=O)NCC(=O)N1[C@H](C(=O)N[C@H](C(=O)N2CCC[C@H]2C(=O)N[C@@H](Cc2ccc(Cl)cc2)C(=O)O)C(C)(C)C)C[C@@H]2CCCC[C@@H]21
# B7: Apelin polypeptide SEQ ID NO: 549 (peptide)
# peptide: Tridecanoyl-[γGlu][AEEA][AEEA][dQ]RP[NMeR][Cha]SHKG[Oic][Nle][Deg][Phe(4-Cl)]-OH
# SMILES: CCCCCCCCCCCCC(=O)N[C@@H](CCC(=O)NCCOCCOCC(=O)NCCOCCOCC(=O)N[C@H](CCC(N)=O)C(=O)N[C@@H](CCCNC(=N)N)C(=O)N1CCC[C@H]1C(=O)N(C)[C@@H](CCCNC(=N)N)C(=O)N[C@@H](CC1CCCCC1)C(=O)N[C@@H](CO)C(=O)N[C@@H](Cc1c[nH]cn1)C(=O)N[C@@H](CCCCN)C(=O)NCC(=O)N1[C@H](C(=O)N[C@@H](CCCC)C(=O)NC(CC)(CC)C(=O)N[C@@H](Cc2ccc(Cl)cc2)C(=O)O)C[C@@H]2CCCC[C@@H]21)C(=O)O
# B8: Apelin polypeptide SEQ ID NO: 487 (peptide)
# peptide: Tridecanoyl-[γGlu][AEEA][AEEA]QRP[NMeR][Cha]SHKG[Oic][Nle][β3hP][Phe(4-Cl)]-OH
# SMILES: CCCCCCCCCCCCC(=O)N[C@@H](CCC(=O)NCCOCCOCC(=O)NCCOCCOCC(=O)N[C@@H](CCC(N)=O)C(=O)N[C@@H](CCCNC(=N)N)C(=O)N1CCC[C@H]1C(=O)N(C)[C@@H](CCCNC(=N)N)C(=O)N[C@@H](CC1CCCCC1)C(=O)N[C@@H](CO)C(=O)N[C@@H](Cc1c[nH]cn1)C(=O)N[C@@H](CCCCN)C(=O)NCC(=O)N1[C@H](C(=O)N[C@@H](CCCC)C(=O)N2CCC[C@H]2CC(=O)N[C@@H](Cc2ccc(Cl)cc2)C(=O)O)C[C@@H]2CCCC[C@@H]21)C(=O)O
# B9: Apelin polypeptide SEQ ID NO: 542 (peptide)
# peptide: Tridecanoyl-[γGlu][AEEA][AEEA][dQ]RP[NMeR][Cha]SHKG[Oic][Nle][β3hP][Phe(4-Cl)]-OH
# SMILES: CCCCCCCCCCCCC(=O)N[C@@H](CCC(=O)NCCOCCOCC(=O)NCCOCCOCC(=O)N[C@H](CCC(N)=O)C(=O)N[C@@H](CCCNC(=N)N)C(=O)N1CCC[C@H]1C(=O)N(C)[C@@H](CCCNC(=N)N)C(=O)N[C@@H](CC1CCCCC1)C(=O)N[C@@H](CO)C(=O)N[C@@H](Cc1c[nH]cn1)C(=O)N[C@@H](CCCCN)C(=O)NCC(=O)N1[C@H](C(=O)N[C@@H](CCCC)C(=O)N2CCC[C@H]2CC(=O)N[C@@H](Cc2ccc(Cl)cc2)C(=O)O)C[C@@H]2CCCC[C@@H]21)C(=O)O
# B10: Apelin polypeptide SEQ ID NO: 436 (peptide)
# peptide: Tridecanoyl-[γGlu][AEEA][AEEA]QRP[NMeR][Cha]SYKG[Oic][Nle]P[Phe(4-Cl)]-OH
# SMILES: CCCCCCCCCCCCC(=O)N[C@@H](CCC(=O)NCCOCCOCC(=O)NCCOCCOCC(=O)N[C@@H](CCC(N)=O)C(=O)N[C@@H](CCCNC(=N)N)C(=O)N1CCC[C@H]1C(=O)N(C)[C@@H](CCCNC(=N)N)C(=O)N[C@@H](CC1CCCCC1)C(=O)N[C@@H](CO)C(=O)N[C@@H](Cc1ccc(O)cc1)C(=O)N[C@@H](CCCCN)C(=O)NCC(=O)N1[C@H](C(=O)N[C@@H](CCCC)C(=O)N2CCC[C@H]2C(=O)N[C@@H](Cc2ccc(Cl)cc2)C(=O)O)C[C@@H]2CCCC[C@@H]21)C(=O)O
# Target: T1, rat APJ receptor
# Assay: cell-based or functional assay
row,EC50 Rat APJ Receptor (GTPγS assay) [nM],Binder
1,0.436,B1
2,2.94,B2
3,1.98,B3
4,0.086,B4
5,4.71,Tridecanoyl-[γGlu][AEEA][AEEA]QRP[NMeR][Cha]SHKG[Oic][Nle][Pip′][Phe(4-Cl)]-OH [Apelin polypeptide SEQ ID NO: 445]
6,0.725,B5
7,1.54,B6
8,4,B7
9,5.61,Tridecanoyl-[γGlu][AEEA][AEEA][dQ]RP[NMeR][Cha]SHKG[Pip′][Nle][β3hP][Phe(4-Cl)]-OH [Apelin polypeptide SEQ ID NO: 544]
10,8.19,B8
11,16.1,B9
12,0.0852,Tridecanoyl-[γGlu][AEEA][AEEA][dQ]RP[NMeR][Cha]SHKG[Pip′][Nle][Aib][Phe(4-Cl)]-OH [Apelin polypeptide SEQ ID NO: 499]
13,1.47,B10

# Target: T2, human APJ receptor
# Assay: cell-based or functional assay
row,EC50 Human APJ Receptor (GTPγS assay) [nM],Binder
1,0.614,B1
2,2.1,B2
3,0.938,B3
4,0.308,B4
5,4.29,Tridecanoyl-[γGlu][AEEA][AEEA]QRP[NMeR][Cha]SHKG[Oic][Nle][Pip′][Phe(4-Cl)]-OH [Apelin polypeptide SEQ ID NO: 445]
6,0.663,B5
7,1.53,B6
8,1.2,B7
9,2.42,Tridecanoyl-[γGlu][AEEA][AEEA][dQ]RP[NMeR][Cha]SHKG[Pip′][Nle][β3hP][Phe(4-Cl)]-OH [Apelin polypeptide SEQ ID NO: 544]
10,1.83,B8
11,5.19,B9
12,0.0236,Tridecanoyl-[γGlu][AEEA][AEEA][dQ]RP[NMeR][Cha]SHKG[Pip′][Nle][Aib][Phe(4-Cl)]-OH [Apelin polypeptide SEQ ID NO: 499]
13,0.793,B10
